Experimental data taken from patent US20260226192.

Test system: Engineered trastuzumab antibody design 18 [anti-Her2 ScFv-FC]
Sequence (chain, as listed by the source, change not shown): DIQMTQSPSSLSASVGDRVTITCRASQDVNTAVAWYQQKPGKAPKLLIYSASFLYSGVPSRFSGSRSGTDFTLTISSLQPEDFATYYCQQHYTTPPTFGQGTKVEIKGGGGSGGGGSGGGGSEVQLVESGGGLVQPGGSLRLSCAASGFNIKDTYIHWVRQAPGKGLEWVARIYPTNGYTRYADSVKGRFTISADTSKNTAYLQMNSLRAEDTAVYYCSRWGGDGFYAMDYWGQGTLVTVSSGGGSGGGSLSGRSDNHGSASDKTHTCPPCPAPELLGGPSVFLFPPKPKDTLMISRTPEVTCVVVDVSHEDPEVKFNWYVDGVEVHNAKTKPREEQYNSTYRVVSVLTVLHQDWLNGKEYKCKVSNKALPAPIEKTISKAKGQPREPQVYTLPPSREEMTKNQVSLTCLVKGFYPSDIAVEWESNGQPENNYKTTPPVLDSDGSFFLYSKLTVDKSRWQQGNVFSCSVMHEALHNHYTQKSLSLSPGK

uPA protease
protease digestion with uPA (1:1 molar), SDS-PAGE: uPA cleaved the antibody variants and generated F(ab) fragments in a similar manner as it did for the other designs
